Laboratory results taken from the nanobody polyreactivity screen of Harvey et al. (2022).

Test: yeast display, Sf9 membrane polyspecificity reagent, FACS + sequencing; frameworks hold sequencing errors
Method in brief: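 Using colony PCR, genes from sorted yeast display clones were amplified, then sequenced on MiSeq at 2 × 250 and filtered by CDR length. The clones had been stained with 10% biotinylated, detergent-solubilized Sf9 membrane reagent for 1 hour at 4 °C and sorted by FACS into low and high (top ~1%) gates on anti-HA and streptavidin fluorescence. Polyreactivity labels come from the gate of origin.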

QVQLVESGGGLVQAGGSLRLSCAASGSTFSYYAMGWYRQAPGKERELVAAISSSGGSTYYADSVKGRFTISRDNAKNTVYLQMNSLKPEDTAVYYCNADSWRRRGRSRYDHWGQGTQVTVSS
polyreactivity (PSR sort gate): low polyreactivity

QVQLVESGGGLVQAGGSLRLSCAASGSTFSYYAMGWYRQAPGKERELVAAISWSGGSKYYADSVKGRFTISRDNAKNTVYLQMNSLKPEDTAVYYCAVYYSYWFDYWGQGTQVTVSS
polyreactivity (PSR sort gate): high polyreactivity

QVQLVESGGGLVQAGGSLRLSCAASGSTFSYYAMGWYRQAPGKERELVAAITSGGRTKYADSVKGRFTISRDNAKNTVYLQMNSLKPEDTAVYYCAKRIEKFSGSLAGRWYDYWGQGTQVTVSS
polyreactivity (PSR sort gate): high polyreactivity

QVQLVESGGGLVQAGGSLRLSCAASGSTFSYYGMGSYRTAPGKERELVDAIDYSGDSTYDADSVKGRFTISRDNAKNTVYLQMNSLKPEDTAVYYCAADDYPWNRYAYWGQGTQVPVSS
polyreactivity (PSR sort gate): low polyreactivity

QVQLVESGGGLVQAGGSLRLSCAASGSTFSYYTMGWYRQAPGKERELVAAITRRGDSTYADSVKGRFTISRDNAKTTVYLQMNSLKPEDTAVYYCAADASVGVSGMDYWGQGSQVTVSS
polyreactivity (PSR sort gate): low polyreactivity

QVQLVESGGGLVQAGGSLRLSCAASGSTFTANAMGWYRQAPGKERELVAAISRSGGSTYYADSVKGRFTISRDNAKNTVYLQMNSLKPEDTAVYYCAADEYYQVSAYDYWGQGTQVTVSS
polyreactivity (PSR sort gate): low polyreactivity

QVQLVESGGGLVQAGGSLRLSCAASGSTFTGNAMGWYRQAPGKERELVAAISRSGGSTFYADSVKGRFTISRDNAKNTVYLQMNSLKPEDTAVYYCATRYVVDMDYWGQGTQVTVSS
polyreactivity (PSR sort gate): high polyreactivity

QVQLVESGGGLVQAGGSLRLSCAASGSTFTGNAMGWYRQAPGKERELVAAISRSGGSTFYADSVKGRFTISRDNAKYTVYLQMNSLKAEDTAVYYCATRYVVDMDYWGQGTQVTVSW
polyreactivity (PSR sort gate): high polyreactivity

QVQLVESGGGLVQAGGSLRLSCAASGSTFTGNAMGWYRQAPGKERELVADISSGASTNYADSVKGRFTISRDNAKNTVYLQMNSLKPEDTAVFYCAADSWDYDSRMDYWGQGTQVTVSS
polyreactivity (PSR sort gate): low polyreactivity

QVQLVESGGGLVQAGGSLRLSCAASGSTFTGNVMGWYRQAPGKERELVAAIDSGATTNYADSVKGRFTISRDNAKNTVYLQINSLKPEDTAVYYCATDGLDFWFIYDYWGQGTQVTVSS
polyreactivity (PSR sort gate): low polyreactivity

QVQLVESGGGLVQAGGSLRLSCAASGSTFTGYAMGWYRQAPGKEREFVANITKRGGRTYYADSVKGRFTISRDNAKNTVYLQMNSLKPEDTAGYYCARDQGKLVVPYEYWGQATQVTVSS
polyreactivity (PSR sort gate): high polyreactivity

QVQLVESGGGLVQAGGSLRLSCAASGSTFTGYAMGWYRQAPGKERELVAAIDVSGATTYYADSVKGRFTISRDNAKNTVYLQMNSLKPEDTAVYYCATYATNSVAAYDYWGQGTQVTVSS
polyreactivity (PSR sort gate): low polyreactivity

QVQLVESGGGLVQAGGSLRLSCAASGSTFTGYAMGWYRQAPGKERELVAAISISGGRTFYADSVKGRFTISRDNAKNTVYLQMNSLKPEDTAVYFCAAYLRGSKYSFDYWVQGTQVTVSS
polyreactivity (PSR sort gate): high polyreactivity

QVQLVESGGGLVQAGGSLRLSCAASGSTFTGYAMGWYRQAPGNEREFVAAISRRGGSTYYADSVKGRFTISRDNAKNTVYLQMNSLKPEDTAVYYCAARGVGGTVPTRYDYWGQGTQVTVSS
polyreactivity (PSR sort gate): high polyreactivity

QVQLVESGGGLVQAGGSLRLSCAASGSTFTINVMGWYRQAPGKERELVAAINGGGRTNYADSVKGRFTISRDNAKNTVYLQMNSLKPEDTAVYYCNARYGNESQGWEDYWGQGTKVTVSS
polyreactivity (PSR sort gate): low polyreactivity

QVQLVESGGGLVQAGGSLRLSCAASGSTFTIYAIGWSRQAPGKERELVAGITRVGSTNYADSVKGRFTISRDNAKNTVYLQMNSLKPEDTAVYYCARRDLFQAGYEYWGQGTQVTVSS
polyreactivity (PSR sort gate): low polyreactivity

QVQLVESGGGLVQAGGSLRLSCAASGSTFTLNAMVWYRQAPGKERELVADISWSSGRTYYADSVKGRFTISRDNAKNTVYLQMNSLKPEVSAVYYCATYDFWKVKFYAYYPEFDYWGQGTQVTVSS
polyreactivity (PSR sort gate): low polyreactivity

QVQLVESGGGLVQAGGSLRLSCAASGSTFTLYALGWYRQAPGKERELVASITWSGSPYADSVKGRFTISRDNAKNTVYLQMNSLIPEDTAVYYCNTDPRSVVGWYDYWGQGTQVTVSS
polyreactivity (PSR sort gate): low polyreactivity

QVQLVESGGGLVQAGGSLRLSCAASGSTFTLYAMGWYRQAPGKERELVATITGSGGSTNYADSVKGRFTISRDNAKNTVYLQMNSLKPEDTAVYYCAAYNPFYYKFDYWGQGTQVTVSS
polyreactivity (PSR sort gate): high polyreactivity

QVQLVESGGGLVQAGGSLRLSCAASGSTFTLYVMGWYRQAPGKERELVAAITSSGDSTDYADSVKGRFTISRDNAKNTVYLQMNSLKPEDTAVYYCNVQPVYADHFTEFDYWGQGTQVTVSS
polyreactivity (PSR sort gate): low polyreactivity

QVQLVESGGGLVQAGGSLRLSCAASGSTFTNNGMGWYRQAPGKERELVATISWDGDSTYYADSVKGRFTISRDNAKNSVYLQMNSLKPEDTAVYDCAADYRLHYSYPYEVVQYEYWGQGTQVTVSS
polyreactivity (PSR sort gate): low polyreactivity

QVQLVESGGGLVQAGGSLRLSCAASGSTFTPNAMGSYRQAPGKERELDASISTTGGNTYYADSVKGRFTISRDNAKNTVYLQMNSLKPEDTAVYYCNAVRSVYLYGYIYGVDYWGQGTQVTVSS
polyreactivity (PSR sort gate): low polyreactivity

QVQLVESGGGLVQAGGSLRLSCAASGSTFTPYAMGWYRQAPGKERELVAAISSTGGITYYADSVKGRFTISRDNAKNTVYLQMNSLKPEDTAVYYCAADAYYYGYEYWGQGTQVTVSS
polyreactivity (PSR sort gate): high polyreactivity

QVQLVESGGGLVQAGGSLRLSCAASGSTFTPYAMGWYRQAPGKERELVAGITGNGGSTRYADSVKGRFTISRDNAKNTVYLQMNSLKTEDTAVYYCAARWTRERYRTSYYSWGQGTQVTVSS
polyreactivity (PSR sort gate): high polyreactivity

QVQLVESGGGLVQAGGSLRLSCAASGSTFTPYVMGWYRQAPGKERELVASITGGGGSTYADSVKGRFTISRDNAKNTVYLQMNSLKPEDTAVYYCGARVWRSYNYWGQGTQVTVSS
polyreactivity (PSR sort gate): high polyreactivity

QVQLVESGGGLVQAGGSLRLSCAASGSTFTPYVMGWYRQAPGKEREVVAAISNVGRTYYADSVKGRFTISRDNAKNTVYLQMNSLKPEDTAVYYCAVRRDKNYYDWGQGTQVTVSS
polyreactivity (PSR sort gate): high polyreactivity

QVQLVESGGGLVQAGGSLRLSCAASGSTFTRNAMGWYRQAPGKERELVATISSGGSTNYADSVKGRFTISRDNAKNTVYLQMNSLKPEDTAVYYCDKRSLYRYYYWGQGTQVTVSS
polyreactivity (PSR sort gate): high polyreactivity

QVQLVESGGGLVQAGGSLRLSCAASGSTFTRNAMGWYRQAPGKEWELVAAITSSGGSTYYAASVKGRFTISRDNAKNTVYLQMNSLKPEDNAVYYCAAYPHRPRDPELDHWGQGTQVTVSS
polyreactivity (PSR sort gate): low polyreactivity

QVQLVESGGGLVQAGGSLRLSCAASGSTFTRNTMGWYKQAPGKERELVAAISRRGGRTDYADSVKGRFTISRDNAKNTVYLQMNSLKPEDTAVYYCAADPITVDQNPRYGYWGQGTQVTVSS
polyreactivity (PSR sort gate): high polyreactivity

QVQLVESGGGLVQAGGSLRLSCAASGSTFTRNTMGWYRQAPGKERELVAVISRRGGSTYYADSVKGRFTISRDNAKNTVYLQMNSLKPEDTAVYYCNTAAYRLQYEYWGQGTQVTVSS
polyreactivity (PSR sort gate): high polyreactivity

QVQLVESGGGLVQAGGSLRLSCAASGSTFTRYAMGSYRQAPGKERELVAAISRTGGSRTYYADSVKGRFTISRDNAKNTVYLQMNSLNPEDTAVYYCAKGYWRYLGFLYFFPARDYWGQGTQVTVSS
polyreactivity (PSR sort gate): high polyreactivity

QVQLVESGGGLVQAGGSLRLSCAASGSTFTRYAMGWYRQAPGKEREFVAAINWSGTSTYYADSVKGRFTISRDTAKNTVYLQMNSLKPEDTAVYYCNAYTVRSYRFDYWGQGTQVTVSS
polyreactivity (PSR sort gate): high polyreactivity

QVQLVESGGGLVQAGGSLRLSCAASGSTFTSNVMGWYRQAPGKERELVAAISQSGGRTYYADSVKGRFTISRDNAKNTVYLQMNSLKPEDTAVYYCAASYVHYHMDYWGQGTQVTVSS
polyreactivity (PSR sort gate): high polyreactivity

QVQLVESGGGLVQAGGSLRLSCAASGSTFTSNVMGWYRQAPGKERELVAAISTNGGRTYYADSVKGRFTISRDNAKNTVYLQMNSLKPEDTAVYYCAASLPRPGIGGRDYWGQGTQVTVSS
polyreactivity (PSR sort gate): low polyreactivity

QVQLVESGGGLVQAGGSLRLSCAASGSTFTSYVMGWYRQAPGKEREFVAAITSSGGDTYYADSVKGRFTISRDNAKNTVYVQMNSLKPEDTEVYYCATRSYYRSSYYRNRYPYDYWGQGTLVTVSS
polyreactivity (PSR sort gate): low polyreactivity

QVQLVESGGGLVQAGGSLRLSCAASGSTFTTNAMGWSRQAPGNERELVATISGGGSTYYADSVKGRFTISRDNAKNTVYLQMNSLKPEDTAVYDCATDVQVPGIGRSVYAYEYWGQGTQVTVSS
polyreactivity (PSR sort gate): low polyreactivity

QVQLVESGGGLVQAGGSLRLSCAASGSTFTTNAMGWYRQAPGKERELVASITWSGGGTNYADSVKGRFTISRDNAKNSVFLQMNSLKPEDTAVYSCADDYDDSHLRSDYWGQGTQVTVSS
polyreactivity (PSR sort gate): low polyreactivity

QVQLVESGGGLVQAGGSLRLSCAASGSTFTTYAMGWYRQAPGKERELVAAISNNGGRTFYADSVKGRFTISRDNAKNTVYLQMNSLKPEDTAVYYCAAEYGLYAPGYYYWGQGTQVTVSS
polyreactivity (PSR sort gate): low polyreactivity

QVQLVESGGGLVQAGGSLRLSCAASGSTFTTYAMGWYRQAPGKERELVAAISYGGGSTYYADSVKGRFTISRDNAKNTVYLQMNSLKPEDTAVYFCAAVAWASDGYDSWGQGTQVTVSS
polyreactivity (PSR sort gate): low polyreactivity

QVQLVESGGGLVQAGGSLRLSCAASGSTFTTYAMGWYRQATGKERELVASITWRGGSTYADSVKGRFTISRDNAKNTVYLEMNSLKPEDTAVYYCAAATRASAQFPRQRYYYWGQGTQVTVSS
polyreactivity (PSR sort gate): high polyreactivity

QVQLVESGGGLVQAGGSLRLSCAASGSTFTTYDMGWYRQAPGKERELVAGITGSGTSTFYADSVKGRFTISRDNAKNTVYLQMKSLKPEDTAVYYCATDWYTPEEYVTGAIEEYYWGQGTLVTVSS
polyreactivity (PSR sort gate): low polyreactivity

QVQLVESGGGLVQAGGSLRLSCAASGSTFTVYAMGWYRQAPGKERELVAAITVSTDSTYYADSVKGRFTISRDNAKNTVYLQMNSLKPEDTAVYYCAADSARSGYGRYDSWGQGTQVTVSS
polyreactivity (PSR sort gate): low polyreactivity

QVQLVESGGGLVQAGGSLRLSCAASGSTFTWNGMGWYRQAPGKERELVATISYGGGRTYYADSVKGRFTISRDNAKNTVYLQMNSLKPEDTAVYYCAADFTRYTQVHALRLSEYWGQGTQVTVSS
polyreactivity (PSR sort gate): low polyreactivity
